In the assay the target is ArsR6 (Flag-tagged, in the complemented strain C[change]) (Brucella suis S2). Kind of assay: cross-linking.

As a reminder, the stoichiometry N is the number of molecules, sites or subunits per partner or assembly. For “ArsR6 (Flag-tagged, in the complemented strain C[change]) (natural protein)”, the stoichiometry N stood at 2.

These data come from publication PMC8509827.
